From the supplement of paper PMC9170038

Key:
MS2 coat protein [1] = experiment: apparent KD of MS2 coat protein, switch ON state; designed switch direction (-1 OFF switch, 1 ON switch): -1; higher = weaker reporter binding; details: FMN input: 0 or 200 uM; Eterna round: R93 (includes R88 designs)
How it was run: (§1)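 Titrations with SNAP-549-labelled MS2 coat protein ran in twofold steps from 0.7 or 1.5 nM to 3 µM, each step taking 0.8–1.5 h at the start and 10–20 min toward the end. The targets were designed RNA switches transcribed on-chip from Illumina sequencing clusters, held in 100 mM Tris-HCl pH 7.5, 80 mM KCl, 4 mM MgCl2, without or with constant ligand. Apparent KD was taken per design as the median of normalised cluster binding-curve fits.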

MS2 coat protein [2] = experiment: apparent KD of MS2 coat protein, switch OFF state (with FMN for OFF switches, without FMN for ON switches); designed switch direction (-1 OFF switch, 1 ON switch): -1; higher = weaker reporter binding; details: FMN input: 0 or 200 uM; Eterna round: R93 (includes R88 designs)
How it was run: as §1

Row | Sequence | apparent KD of MS2 coat protein (MS2 coat protein [1]) [nM] | apparent KD of MS2 coat protein (MS2 coat protein [2]) [nM]
1 | AAAAAUGGAGGAUAUACAUGAGGAUCACCCAUGUGUAACUAUACUAAACACAAAAAAAGUAGAAGGCCAAAAAA [Gilly Gone Silly 8 - Jieux - Exclusion 3] | 32.7 | 50
2 | AAGAAACAUGAGGAUCACCCAUGUCAGGAUAUAGAAAAGAAAAGAAAAGAAAGAAGAACUAGAAGGGACAAAGG [Menkare] | 34.1 | 34
3 | AAAAAGUCAGGAUAUAUCAAAGCCUAUGAAAGUGGGAAAGGGUAGAAGGGACAUGAGGAUCACCCAUGUAAAAA [Banishment 10 - Jieux - Exclusion 4] | 62.3 | 38.5
4 | GGAAAACAUGAGGAUCACCCAUGUAAGGAUAUGCAAAAAAAGGAUAUAGAAGGAAAAAGCAGAAGGUACAAAGG [salish99-ex1-24] | 30.6 | 55.5
5 | AUCUAGUCAGGAUAUGACUACAUAAAAAAAAAAAAAUGUAGUCAGAAGGGACAUGAGGAUCACCCAUGUACUAA [HSL_Exclusion 4 64% 1] | 37.3 | 24.8
6 | AAGAAACAUGAGGAUCACCCAUGUCAGGAUAUCGAAAAGAAAAGAAAAGAAAGAAGAACGAGAAGGGACAAAGG [Qakare Ibi] | 59.6 | 67.8
7 | AACAUACAUGAGGAUCACCCAUGUCAGGAUAUGCCGGGUUAGAGCCAACUAAAAAAACGUAGAAGGGACAAAAA [Bilbo Confounded 6 - Jieux - Exclusion 1] | 62.7 | 55.7
8 | AAAAACGUAGGAUAUACAUGAGGAUCACCCAUGUAAAAAAAAAAGGGAGAAAAAAGAAGUAGAAGGACGAAAAA [JR_Exc003_Sub002] | 32.4 | 27.1
9 | AAAAAACAUGAGGAUCACCCAUGUGAGGAUAUCUGUAUUCAAUCCUCGGAUUGAAUACAGAGAAGGCACAUGGA [Ex1: 610] | 46.4 | 13.8
10 | AAGGGACAUGAGGAUCACCCAUGUUAGGAUAUGCAAACAACAAACAACAAACAACAAAGCAGAAGGGACAAAAA [63%, Olong, 6] | 30.5 | 28.8
11 | AGAAAGUCAGGAUAUACGAAUAAGAAUAAAGACGAGAACGGACAUGAGGAUCACCCAUGUAGAAGGGACAAGAA [Diamond 16] | 51.6 | 21.8
12 | UAUGAGCGAGGAUAUGCUUGGGACUGUCGGAAUGUGGCGGGACAUGAGGAUCACCCAUGUAGAAGGCGCGAGCG [Harteesian Stick] | 77.9 | 126
13 | AAAAAAUGAGGAUAUACAUGAAAAAAAAAAAAAAAAAAAAAACAUGAGGAUCACCCAUGUAGAAGGCGUAAAAA [Flexi GU!] | 39.8 | 29
14 | AAGAAUGCAGGAUAUACAAAAUAAAAGAAAAGAAAGAAAGAACAUGAGGAUCACCCAUGUAGAAGGGCGAAGAA [Sewadjkare Hori] | 44.4 | 34.4
15 | AAAAAGUCAGGAUAUCGGAAAAAAAAAAAAAAAAGGAGAAACGAGAAGGGACAUGAGGAUCACCCAUGUAAAAA [No Frills] | 117 | 44
16 | AAAAAACAUGAGGAUCACCCAUGUGAGGAUAUGCAAAACCCAUAUAAAAAGGGAAAAAGCAGAAGGUACAAAAA [Starry Exclusion 1.2 (wbt round 1 mod)] | 20.7 | 21.3
17 | AACAGUACAGGAUAUACAUGAGGAUCACCCAUGUGAUAUAAAUAAAACAAAAAUAAAAGUAGAAGGGUACUGGA [Ruby 44] | 25.7 | 70.8
18 | AAGAAGUGAGGAUAUCGAAGACUGUCGAAAAGACAGUCGAACGAGAAGGCACAUGAGGAUCACCCAUGUAAGAA [Marsupial] | 34.4 | 45
19 | AUCUUGUCAGGAUAUCGUACAAUAUGGAAAACAUAGAGGUACGAGAAGGGACAUGAGGAUCACCCAUGUAAAAC [May 98] | 59.5 | 73.7
20 | AAGACUAGAGGAUAUACAUGAGGAUCACCCAUGUAACUGUCAGGUGACUGACGGAGAUGUAGAAGGCUAGUCAA [Wider Swing] | 17.2 | 41.2
21 | AGGAAACAUGAGGAUCACCCAUGUCAGGAUAUAUGAAAGAAAAGAAAAGAAAGAAGAAGUAGAAGGGACAAGAA [Ka] | 29.8 | 29.9
22 | AACGAGUCAGGAUAUGCUAUAAAUUAAUAAAUAAAAUUAUAGCAGAAGGGACAUGAGGAUCACCCAUGUAAAUA [JR_Exc004_Sub201] | 45.7 | 42.2
23 | AGCAAGAGAGGAUAUACAUAGGAAAAAAAAGUCAGAUCCCUACAUGAGGAUCACCCAUGUAGAAGGCUCUGGCA [Ex2 Design 154: Sub-opt 18] | 15.1 | 12.2

Row | Sequence | apparent KD of MS2 coat protein (MS2 coat protein [1]) [nM] | apparent KD of MS2 coat protein (MS2 coat protein [2]) [nM]
24 | AUAAAGUGAGGAUAUACAUGAGGAUCACCCAUGUGAAAGUCUAAAAAAAUGACAAAAAGUAGAAGGCACAAAUA [Mai Tai2 ala mod Fisker] | 18.8 | 23.5
25 | AAAUGCUGAGGAUAUACAUGAGGAUCACCCAUGUGAAAUAAAAAAUGUGUGUAAUCGUGUAGAAGGCAGCAUAA [Exclusion 3.13 (FMN+ favored more)] | 21.6 | 18.1
26 | AAAAAGUAAGGAUAUACAAAAAUAAAAAAUUAUGAUAAAAAACAUGAGGAUCACCCAUGUAGAAGGUACGAAAA [AJ 3] | 27.5 | 26.7
27 | AAAAAUGGAGGAUAUACAUGAGGAUCACCCAUGUGUAACUAUACUAAGCGCUCCUCAGGUAGAAGGCCAAAAAA [Gilly Gone Silly 15 - Jieux - Exclusion 3] | 70.9 | 48
28 | AACAGUACAGGAUAUACAUGAGGAUCACCCAUGUAAAAAAGGGCUGGCGUACCAGAAAGUAGAAGGGUACUGGA [Moding Maslow revisited (73) 9] | 30.6 | 88.1
29 | AAGAACGUAGGAUAUACAUGAGGAUCACCCAUGUAAAAGAAAGAAAAGGGAAAGAAAAGUAGAAGGACGAAGAA [Usermaatre-setpenre Ramesses II] | 42.1 | 34.4
30 | AGGGAGUGAGGAUAUCCGAAAAAAAAACAACGAAAAAAAGAGGAGAAGGCACAUGAGGAUCACCCAUGUAAGAA [milkweed 15] | 40.7 | 28.6
31 | AAAAAACAUGAGGAUCACCCAUGUAAGGAUAUGCAAAAUAAAAGAAAUAAAAAGAAAAGCAGAAGGUAUAUGAA [JL wbt mod 7] | 32.6 | 26.7
32 | AAGAGGCGAGGAUAUACAUGAGGAUCACCCAUGUAAUCCGGAUAAGGAAGCAUGUCGUGUAGAAGGUGCCAUGA [water's exclusion 3 last] | 19.2 | 20.2
33 | AAUAAGACAGGAUAUACGAAAAUAAGCGGAAACGCAAAGGGACAUGAGGAUCACCCAUGUAGAAGGGUCGAUAA [Tetraloop... 61% 3] | 80.2 | 190
34 | AAAAAGUGAGGAUAUACAUGAGGAUCACCCAUGUAAAAGGUCGCGGGAGGGAGGGACGGUAGAAGGCGCAAAAA [Excls3-VII] | 15.7 | 22.2
35 | AACAUGUCAGGAUAUGUAAAAAAAAAAAAAAAAAAAAAAAUACAGAAGGGACAUGAGGAUCACCCAUGUCAGGG [EX4 391: Minimal 3] | 69.8 | 55.3
36 | AGAAAGUCAGGAUAUAUAGGAAAAAUAAAAAAAAUAAAACUAUAGAAGGGACAUGAGGAUCACCCAUGUUAAGA [Mat - Exclusion 4 - Mayanna - D133] | 34 | 17.8
37 | AGCAGUACAGGAUAUACAUGAGGAUCACCCAUGUGAAAAGAAAGUGGCGUACCACAAAGUAGAAGGGUACUGCA [Mat - Exclusion 3 - JL mod - D33] | 27.9 | 180
38 | AUAAUGUGAGGAUAUACAUGAGGAUCACCCAUGUAAUUAAAAAGGAGAGACACAAUUCGUAGAAGGUACAUUUA [JR_Exc003_Sub509] | 23.4 | 26.3
39 | AGAAAACAUGAGGAUCACCCAUGUGAGGAUAUCGAUGUCCAAGACCUGGUGCGGGACUCGAGAAGGCACUGGGA [salish99-ex1-92] | 41.4 | 44.8
40 | AAGAAAGGAGGAUAUACAUGAGGAUCACCCAUGUAAAAGAAAGAGGGAAAAGAGAAAAGUAGAAGGCCUAAGAA [Ptolemy IX Soter II] | 30.8 | 39.1
41 | AACAAGACAGGAUAUACAUGAGGAUCACCCAUGUGAGAAUUAAGUGGCGUAACACAAAGUAGAAGGGUCAUGGA [Ruby 4] | 38 | 56.2
42 | AAAAAGUGAGGAUAUUCGGAAGGGAAAGCGCAAACCCAACCGAAGAAGGCACAUGAGGAUCACCCAUGUGGAAA [Ecls4-III 65% - Early + late G segment 2] | 32.1 | 26.8
43 | AGGAAACAUGAGGAUCACCCAUGUGAGGAUAUGAACGAAAAUAAAUAAAAAUAAAAGUUCAGAAGGCAUAAAAA [66%, Wbt, 4] | 30 | 35.6
44 | AAAAAACAUGAGGAUCACCCAUGUGAGGAUAUUGGUAUUCAAGAUAUAAUCUUAAUAGCGAGAAGGCGCAAAAA [Brourd 613 Mod 17 - Jieux - Exclusion 1] | 24.1 | 21.9
45 | AAAAAAAGAGGAUAUACGAACAUGUCAAAAGACGUGAAGGGACAUGAGGAUCACCCAUGUAGAAGGUUUAAAAA [JL Wide Open 29] | 32.9 | 15.5
